Laboratory results from US10358467B2, “Therapeutic targets for cancer progression” (The Regents of the University of California, priority 2015, dated 2019).

Legend:
GST-Gαi3 = target: T1, GST-Gαi3 (Rattus norvegicus, UniProt P08753); test: Competition with His-DAPLE-CT for binding to GST-Gαi3 (pulldown)
T1 construct: made in house; host or cells: E. coli BL21 (DE3)
Method: Purified GST-Gαi3 or GST alone (5 μg) were immobilized on glutathione-Sepharose beads and incubated with binding buffer [50 mM Tris-HCl (pH 7.4), 100 mM NaCl, 0.4% (v:v) Nonidet P-40, 10 mM MgCl2, 5 mM EDTA, 30 μM GDP, 2 mM DTT, protease inhibitor mixture] for 90 min at room temperature as described before (Garcia-Marcos et al, 2011a; Ghosh et al, 2010; Ghosh et al, 2008; Lin et al, 2011). Lysates (˜250 μg) of Cos7 cells expressing appropriate myc-DAPLE constructs or purified His-DAPLE-CT (aa 1650-2028) protein (3 μg) were added to each tube, and binding reactions were carried out for 4 h at 4° C. with constant tumbling in binding buffer [50 mM Tris-HCl (pH 7.4), 100 mM NaCl, 0.4% (v:v) Nonidet P-40, 10 mM MgCl2, 5 mM EDTA, 30 μM GDP, 2 mM DTT]. Beads were washed (4×) with 1 mL of wash buffer [4.3 mM Na2HPO4, 1.4 mM KH2PO4 (pH 7.4), 137 mM NaCl, 2.7 mM KCl, 0.1% (v:v) Tween 20, 10 mM MgCl2, 5 mM EDTA, 30 μM GDP, 2 mM DTT] and boiled in Laemmli's sample buffer. In some experiments the ‘active’ conformation of the G protein was stabilized by replacing GDP in the binding and wash buffers with 30 μM GTPγS or a mixture of 30 μM GDP/30 μM AlCl3/10 mM NaF. Immunoblot quantification was performed by infrared imaging following the manufacturer's protocols using an Odyssey imaging system (Li-Cor Biosciences).

[1] = tested on: β-Catenin/TCF/LEF pathway in DLD1 7TGP cells; test: β-Catenin reporter assay (7TGP); format: cell-based, human; conditions: stable expression, starved and stimulated with Wnt5a, versus vector control
Method: These assays were carried out using the well-established reporter 7×Tcf-eGFP (7TGP) (Fuerer & Nusse, 2010). Stable cells lines expressing this reporter were generated by lentiviral transduction and subsequent selection using standard procedures. Lentiviral infection and selection were performed according to standard procedures. Briefly, 10 cm plates DLD1 cells at 70% confluency were incubated with media containing 8 μg/mL polybrene and 10 μl of lentivirus for 6 h. After 24 hours post infection, selection of puromycin-resistant clones was initiated by adding the antibiotic at 2 μg/ml final concentration. The resultant DLD1-7TGP stable cells were subsequently transfected with various myc-DAPLE constructs and selected for G418 resistance as described earlier in methods. The DLD1-7TGP cells stably expressing myc-DAPLE were incubated overnight at 0.2% FBS, analyzed by fluorescence microscopy, and photographed prior to lysis. Whole cell lysates samples were then boiled in Laemmli's sample buffer and GFP protein expression was monitored by immunoblotting.

NIH3T3 cells = test: 3D spheroid matrigel invasion assay; format: cell-based; conditions: in response to Wnt5a
Method: NIH3T3 cell invasion assay in 3D culture was performed according to the manufacturer's protocol (Trevigen, Cultrex 3D Spheroid BME Cell Invasion Assay, catalog #3500-096-K). Briefly, non-invasive NIH3T3 cells (˜3000 cells) transfected with empty vector (control) or myc-DAPLEconstructs were incubated first in the Spheroid Formation extracellular matrix (ECM) containing 0.2% FBS for 3 days. Invasion matrix was then added and layered on top with media containing FBS. […] Photographs were analyzed and pseudocolored by Image J to reflect cell density.

DLD1 cells = test: Anchorage-dependent tumor growth assay; format: cell-based, human; conditions: DLD1 cells stably expressing constructs, 2-3 weeks
Method: Anchorage-dependent growth was monitored on solid (plastic) surface as described previously (Franken et al, 2006). Briefly, anchorage-dependent growth was monitored on solid (plastic) surface. Approximately ˜1000 DLD1 cells stably expressing various DAPLE constructs were plated in 6-well plates and incubated in 5% CO2 at 37° C. for ˜2 weeks in 0.2% FBS growth media. Colonies were then stained with 0.005% crystal violet for 1 h. The remaining DLD1 cells were lysed and analyzed by immunoblotting to confirm DAPLE construct expression. Each experiment was analyzed in triplicate.

T1 sequence (P08753 whole entry): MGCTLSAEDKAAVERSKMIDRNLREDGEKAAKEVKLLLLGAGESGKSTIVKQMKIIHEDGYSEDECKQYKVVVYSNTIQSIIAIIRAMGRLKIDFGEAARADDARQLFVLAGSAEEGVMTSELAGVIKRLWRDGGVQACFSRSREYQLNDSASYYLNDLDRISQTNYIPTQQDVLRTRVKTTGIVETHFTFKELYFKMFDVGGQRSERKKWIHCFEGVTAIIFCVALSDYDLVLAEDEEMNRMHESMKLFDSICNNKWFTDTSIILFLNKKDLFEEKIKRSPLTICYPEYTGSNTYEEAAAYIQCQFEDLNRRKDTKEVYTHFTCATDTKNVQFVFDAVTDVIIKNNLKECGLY

| competition with His-DAPLE-CT for binding to GST-Gαi3 (GST-Gαi3) | Molecule | eGFP signal (Wnt transcriptional activity) [1] | invasion of matrigel by spheroids (NIH3T3 cells) | adherent colonies per well (tumor growth) (DLD1 cells) |
| --- | --- | --- | --- | --- |
| competed | KB-752: synthetic GEF peptide similar to the GBA motif (SRVTWYDFLMEDTKSR) [reference compound] |  |  |  |
| competed | His-GIV-CT: His-GIV-CT (aa 1660-1870, containing its GEF motif) (protein, left off: small tags and cut ends) ISETLESRHHKIKTGSPGSEVVTLQQFLEESNKLTSVQIKSSSQENLLDEVMKSLSVSSDFLGKDKPVSCGLARSVSGKTPGDFYDRRTTKPEFLRPGPRKTEDTYFISSAGKPTPGTQGKIKLVKESSLSRQSKDSNPYATLPRASSVISTAEGTTRRTSIHDFLTKDSRLPISVDSPPAAADSNTTAASNVDKVQESRNSKSRSREQQS |  |  |  |
|  | DAPLE-V2-WT: short isoform of DAPLE (SEQ ID NO: 23, 552 aa) expressed in cells (protein, listed as Homo sapiens, myc tag) MSVLSPGDLKPKRGSPHRGSLDRTDASTDLAMRSWPSELGSRTCSTSATTTAPSNSTPIARHPGRTKGYNSDDNLCEPSLEFEVPNHRQYVSRPSSLESSRNTSSNSSPLNLKGSSEQLHGRSESFSSEDLIPSRDLATLPREASTPGRNALGRHEYPLPRNGPLPQEGAQKRGTAPPYVGVRPCSASPSSEMVTLEEFLEESNRSSPTHDTPSCRDDLLSDYFRKASDPPAIGGQPGPPAKKEGAKMPTNFVAPTVKMAAPTSEGRPLKPGQYVKPNFRLTEAEAPPSVAPRQAQPPQSLSLGRPRQAPVPPASHAPASRSASLSRAFSLASADLLRASGPEACKQESPQKLGAPEALGGRETGSHTLQSPAPPSSHSLARERTPLVGKAGSSCQGPGPRSRPLDTRRFSLAPPKEERLAPLHQSATAPAIATAGAGAAAAGSGSNSQLLHFSPAAAPAARTKPKAPPRSGEVATITPVRAGLSLSEGDGVPGQGCSEGLPAKSPGRSPDLAPHLGRALEDCSRGSVSKSSPASPEPGGDPQTVWYEYGCV | showed inhibition of eGFP | Neither the WT nor the FA mutant of DAPLE-V2 could trigger invasion | can inhibit tumor growth |
|  | DAPLE-V2-FA: DAPLE-V2 with F194A mutation disrupting Gαi3 binding, expressed in cells (protein, left off: small tags and cut ends) MSVLSPGDLKPKRGSPHRGSLDRTDASTDLAMRSWPSELGSRTCSTSATTTAPSNSTPIARHPGRTKGYNSDDNLCEPSLEFEVPNHRQYVSRPSSLESSRNTSSNSSPLNLKGSSEQLHGRSESFSSEDLIPSRDLATLPREASTPGRNALGRHEYPLPRNGPLPQEGAQKRGTAPPYVGVRPCSASPSSEMVTLEEALEESNRSSPTHDTPSCRDDLLSDYFRKASDPPAIGGQPGPPAKKEGAKMPTNFVAPTVKMAAPTSEGRPLKPGQYVKPNFRLTEAEAPPSVAPRQAQPPQSLSLGRPRQAPVPPASHAPASRSASLSRAFSLASADLLRASGPEACKQESPQKLGAPEALGGRETGSHTLQSPAPPSSHSLARERTPLVGKAGSSCQGPGPRSRPLDTRRFSLAPPKEERLAPLHQSATAPAIATAGAGAAAAGSGSNSQLLHFSPAAAPAARTKPKAPPRSGEVATITPVRAGLSLSEGDGVPGQGCSEGLPAKSPGRSPDLAPHLGRALEDCSRGSVSKSSPASPEPGGDPQTVWYEYGCV | not | Neither the WT nor the FA mutant of DAPLE-V2 could trigger invasion |  |
